This note sets out measurements from paper PMC10160606, “Identification of GA20ox2 as a target of ATHB2 and TCP13 during shade response”.

The target in the data set is T1, ATHB2 (UniProt Q05466 1-284).
T1 sequence: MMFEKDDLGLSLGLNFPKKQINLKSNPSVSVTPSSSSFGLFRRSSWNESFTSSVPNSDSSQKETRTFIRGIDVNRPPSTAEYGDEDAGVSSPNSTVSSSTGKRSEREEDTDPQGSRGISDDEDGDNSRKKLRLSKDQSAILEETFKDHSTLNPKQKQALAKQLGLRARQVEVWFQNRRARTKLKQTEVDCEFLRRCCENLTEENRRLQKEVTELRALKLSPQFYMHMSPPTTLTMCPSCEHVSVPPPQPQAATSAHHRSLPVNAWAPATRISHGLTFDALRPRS
Kind of data set: EMSA; 100x unlabeled identical oligonucleotide used as competitor in a separate lane; LightShift Chemiluminescent EMSA Kit (Thermo Fisher) per manufacturer; native gel; buffer, salt, pH and temperature not stated. As to conditions: protein: recombinant; tags: 6xHis (pET-28a); chain copies: 2; label: 3' biotin on both strands; blunt. For orientation: Mobility shift assays separate free from complexed probe on a gel.

B1: GA20ox2 promoter ABS1 31-mer (dsDNA)
DNA 1: CAATTTGAAGACAATGTTAGGAATTAGTTAC
DNA 2: GTAACTAATTCCTAACATTGTCTTCAAATTG
As for B1, the binding result is “binds”.
